Test results taken from US20260274933A1 (Innovent, published 2026).

Columns and labels:
human VEGF165 (R&D) [1] = biological target: T1, human VEGF165 (R&D) (human, UniProt P15692-4 27-191); test: BLI (ForteBio), bivalent binding; * dissociation constant exceeding ForteBio detection limits
T1 construct: Antigen of the ForteBio assay

human VEGF165 (R&D) [2] = biological target: T1, human VEGF165 (R&D); test: BLI (ForteBio), bivalent binding
human VEGF165 (R&D) [3] = biological target: T1, human VEGF165 (R&D); test: BLI (ForteBio), monovalent binding
[4] = biological target: T2, biotin-labeled VEGF A165 (ACRO, Catalog No. VE5-H8210) (human, UniProt P15692-4 27-191, biotin-labeled); test: blocking ELISA: biotin VEGF A165 captured on streptavidin, binding of VEGFR-Fc blocked; value printed as EC50 in the table under the curves, unit from the axis
T2 construct: also called hVEGF A
Procedure: SA (Thermo, Catalog No. 21125) was diluted to 1 μg/mL, and 100 μL/well of SA was plated in a microplate at 4° C. overnight. The plate was washed 3 times with PBST and blocked with 3% BSA for 1.5 h. […] The plate was washed 6 times with PBST, the color development was performed with TMB for 5 min, and OD450 nm was read after stopping.

T1 sequence (P15692 other isoform, or with tags, fused parts or gaps limits assumed): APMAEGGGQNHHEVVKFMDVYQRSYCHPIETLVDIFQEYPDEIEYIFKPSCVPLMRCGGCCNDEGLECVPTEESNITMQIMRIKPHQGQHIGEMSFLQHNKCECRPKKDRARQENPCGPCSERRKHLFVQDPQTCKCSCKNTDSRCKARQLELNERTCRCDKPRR
T2 sequence (P15692 other isoform, or with tags, fused parts or gaps limits assumed): as above

- koff (human VEGF165 (R&D) [1]): ≤ 0.0002 s⁻¹
- Kd (human VEGF165 (R&D) [2]): 0.843 nM
- kon (human VEGF165 (R&D) [2]): 237000 M⁻¹ s⁻¹
- Kd (human VEGF165 (R&D) [3]): 6.11 nM
- koff (human VEGF165 (R&D) [3]): 0.00116 s⁻¹
- kon (human VEGF165 (R&D) [3]): 189000 M⁻¹ s⁻¹
- EC50 [4]: 0.0149 µg/mL
B1: LA42F8 (VEGFA VHH) (VHH)
VHH: QLQLVESGGGLVQPGGSLRLSCAASGFNLDYYPIGWFRQAPGKEREGVSCISSVGSTNYADSVKGRFTISRDNAKNTVYLQMNSLKPEDTAVYYCAADPLCSALILPPPFLSWGQGTQVTVSS
notes: Alpaca anti-VEGF A VHH; also called LA42F8 supernatant
